Assay results published in the nanobody polyreactivity screen of Harvey et al. (2022).

Test: yeast display, Sf9 membrane polyspecificity reagent, FACS + sequencing; frameworks hold sequencing errors
Outline: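 Polyreactivity labels are assigned by the sorting gate from which each nanobody was recovered. The gates were low and high (top ~1%), set on anti-HA fluorescence for expression and streptavidin fluorescence for reagent binding. Before sorting, galactose-induced (36–48 hours) yeast display cells were stained for 1 hour at 4 °C with 10% biotinylated, detergent-solubilized Sf9 membrane reagent.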

| Sequence | polyreactivity (PSR sort gate) |
| --- | --- |
| QVQLVESGGGLVQAGGSLRLSCAASGSTFFQYAMGWYRPAPGKERELVAAITTSGGRTYYADSVKGRFTISRDNAKNTVYLQMNSLKPEDTAVYYCAGYNYWGQGTQVTVSS | high polyreactivity |
| QVQLVESGGGLVQAGGNLRLSCAASGRIFSSYAMGWYRQAPGKERELVAAITGTGGTTYYADSVKGRFTISRDNAKYTVYLQMNSLKPEDTAVYYCNAERIYRLSRDSAVQYDYWGQGTQVTVSS | low polyreactivity |
| QVQLVESGGGLVQAGGSLRLSCDASGRIFSYYAMGWYRPAPGKERELVAAITRSGGNTYYADSVKGRFTISRDNAKNTVYLLMNSLKPEDTAVYYCAARLGRPFYGPNRYDYWGQGTQVTVSS | high polyreactivity |
| EEELVESGGGLVQAGGSLRLSCAASGIIFGYYAMGWYRQAPGKERELVAAITRSGSSTYYADSVKGRFTISRDNAKNTVYLQMNSLKPEDTAVVSCAADNFYQAYGYWGQGTQVTVSS | low polyreactivity |
| QVQLVESRGGLVQAGGSLRFSCAASGSTFRDYAMGGSRQAPGKERQVLAAISSTGGRTYYADSVKGRFTISRDNAKNTVYLQMNSLKPEDTAVYYCKAALYPSLDYGSASISKSYDYWGQGTQVTVSS | high polyreactivity |
| QVQLVESGGGLVQAGGSLRLSCAASGRIFDYYAMGWYRQAPGKERELVASISRSGGSTYYADSVKGRFTISRDNAKNTVYLQMNSLKPEDTAVYYCAARRGYYYGRVGYWGQGTQVTVSS | high polyreactivity |
| QVQLVESGGGLVQAGGSLRLSCAASGYIILLYAMGWYRQAPGKERELVAAISTRDGSTYYADSVKGRFTISRDNGKITVYLQMNSLNPEDTAVYYCATLYYYNYCGQGTQVTVSS | high polyreactivity |
| QVQLVESGGGLVQAGGSLRLSCAASGFIFIYNVMGWYRPAPGKERELVAAINRGGSTKYADSVKGRFTISRDNAKNTVYLQMNSLKPEDTAVYYCAARYDGSRYHYDGYDYWGQGTQVTVSS | low polyreactivity |
| QVQLVESGGGLVQAGGSLRLSCAASGSTIPSYAMGWYRAAPGKERELVASITYSDGPTRYADSEKGRFTISRDNAKNTVFLQMNSLKPEDTAVYYCNAVYYREGMDYWGQGNQVTVSS | low polyreactivity |
| QVQLVESGGGLVQAGGSLRLSCAASGFIFRRNAMGWYRQAPGKEREFVAAITWSGGSTYYADSVKGRFTISRDNAKYTVYLQMNSLKPEDTAVYYCAATYSQYWYTKYLNSYPGYDYWGQGTQVTVSS | low polyreactivity |
| QVQLVESGGGLVQAGGSVRLSCAASGSTSAYAMGWYRQAPGKEREFVAAIRFSAGSTYYADSVKGRFTISRDNAKNTVYLQMNSLKPEDTAVYYCAASYSVIFGYFPDYYWVVEYDYWGQGTQVTVSS | high polyreactivity |
| QVQLVESGGGLVQAGGSLRLSCAASGFTFSLYAMGWYRQAPGKERELVAAISRSGGSTYYADSVKGRFTISRDNAKKTVYLQMNSLKPEDTAVYYCNAPYSVSSIRYDYWGQGTQVTVSS | high polyreactivity |
| QVQLVESGGGLVQAGGSLRLSCAASGFTFRLYAMGWYRQAPGIERELVAAISSGGRTYYADSVKGRFTISRDNAKNTVYFQMNSLKPEDTAVNYCAVYPRDAERYGYWGQGSQVTVSS | high polyreactivity |
| QVQLVESGGGLVQAGGSLRLSCAASGSTFWDYAMGWYRQAPGKERELVASISSGGRTYYADSVKGRFTISRDNAKNTVYLQMNSLKPEDTAVYYCARRSWWDYYSWGQGTQVTVSS | high polyreactivity |
| QVQLVESGGGLVQAGGSLRLSCAASGFIFRTYAMGWYRQAPGKERELDATITGDGSTNYADSVKGRFTISRDNAKKTVYLQMNSLKPEDTAVYYGSRDVRLSGDYWGQGTQVTVSS | low polyreactivity |
| QVQLVESGGGLVQAGGSLRLSCAASGRTFKKYAMGWYRQAPGKERELVAAITGSGGSTYYADSVKGRFTISRDNAKNTVYLQMNSLKPEDTAVYYCAAYAYGVWHSQDGGNYWGQGTLVTVSS | low polyreactivity |

| Sequence | polyreactivity (PSR sort gate) |
| --- | --- |
| QVQLVESGGGLVQAAGSLRLSCAASVGTFTPNVMGWSRKAPGKERELVAAIDDSGSRTYYADSVKGRFTISRVNAKNTVYLQMNSLKPEDTAVYYCAVYWYGTFPMYYWGQGTQVTVSS | low polyreactivity |
| QDQLVESGGGLVQAGDSLRLSCAASGIILLSYAMGWYRQAPGKERELVAAITSGGGTNYADSVKGRFTISRDNAKNTVYLQMNSLKPEDTAVYYCAVGAYAGLYYYWGQGTQVTVSS | low polyreactivity |
| QVQLVESGGGLVQAGGSLRLSCAASGRTFKNYAMGWYRQAPGKERELVAAISRRGSSTYYADSVKGRFTISRDNAKNTVYLQMNSLKPEDTAVYYCNAVKFTYGWLGYWGQGTQVTVSS | high polyreactivity |
| QVQLVESGGGLVQAGGSLRLSCAASGRIIGYNAMGWYRQAPGKERELVATITYGGGRTYYADSVKGRFTISRDNAKNTVYLQMNSLKPEDTAVYYCAAKHRFPIPGFGYWGQGTQVTVSS | low polyreactivity |
| QVQLVESGGGLVQAGGSLRLSCAACGITFTSNAMGWYRQAPGKERELVASISWSDDNTHYADSVKGRFTISRDNAKYTVYLQMNSLKPEDTAVYYCAADGTHPRPGTYKFDYWGQGTQVTVSS | low polyreactivity |
| QVQLVESGGGLVQAGGSLRLSCAASGSIFFYYAMGWYRPAPGKERELVAAITSGGTTNYADSVNGRFTISRDNAKNTVYLQMNSLKPEDTAVYYCAVAGPRYAFFEYDYWGQGTQVTVSS | low polyreactivity |
| QVQLVESGGGLVQAGGSLRLSCAASGFTFFHNAMGWYRQAPGKERELVAAITSGGNTYYADSVKGRFTISRDNAKNTVYLQMNSLKPEDTAVYFCNAVISRVVRYEYWGQGTQVTVSS | high polyreactivity |
| QVQLVESGGGLVQAGGSLRLSCAASGSIFATYAMGWYRQAPGKERELVAAISSSGSRTYYADSVKGRFTNSRDNAKNTVYLQMNSLKPEDTAVYYCAAGSGRFRPGYGYWGQGTQVTVSS | high polyreactivity |
| QVQLVESGGGLVQAGGSLRLSCAASGSTIPSNAMGWYRQAPGKERELVASITYSDGTTRYADSVKGRFTISRDNAKNTVYLLMNSLKPEDTAVYYCNAVYYREGMDYWGLGTQVTVSS | low polyreactivity |
| QVQLVESGGGLVQAGGSLRLSCAASGFTLENYAMGWYRQAPGKARELVAAINCRGSRTYYADSVKGRFTISRDNAMNTVYLQMNSLKPEDTAVYYCARDKRTNSGFYYWGQGTQVTVSS | high polyreactivity |
| QVQLVESGGGLVQAGGSLRLSCAASGYTFGYYAMGWYRQAPGKERELVAAISSGGSTYYADSVKGRFTISRDNAKNTVYLQMNSLKPEDTAVYYCAVVRYLGDRGMNYWGQGTQVTVSS | low polyreactivity |
| QVQLVESGGGLVQAGGSLRLSCAASGRTFPRYVMGWNRQAPGKERELVAAISSSGGSTYYADSVKGRFTISRDNAKNTVYLQMNSLKPEDTAVYYCAAPSGGSKRYYYWGQGTKVTVSS | high polyreactivity |
| QVQLVESGGGLVQAGRSLRLSCAASGFTFAYYAMGWYRQAPGKERELVAAISRGGTSTYYADSVKGRFTISRDNAKNTVYLQMNSLKPEDTAVYYCNAVKVGYSLYDYWGQGTQVTVSS | high polyreactivity |
| HVQIVESGGGLVQAGGRLRLSCAASGSTFHDYAMGWYRQATGQERELVAAISNSGGSTYYADSVKARFTISRDNAKNTVYLQMKSQKPEYTAVYYCAADGRWYWDYEYWGQGTQVTVSS | low polyreactivity |
| QVQLVESVGGIVQAGGSLRLSCAASGRTFTYNVMGWYRQAPGKEMELVAAITSGGSNYADSVKGRFTISRDNAKNTVYLQMNSLTPEDTAGYYCATDYYEDVTIGYDYWGQGTQVTVSS | low polyreactivity |
| QVQLVESVGGLVQAGGSLRLSCAGSGSIFFRNSMLWYRQAPGKERELVAAIRSSVSSTYYADSVKGRFTISRDNAKNTVYLQLNSLKPEDTAVYYCAAAARSYVGYYYWGQGTQVTVSS | low polyreactivity |
